1 sequence from paper PMC12682024 can be followed below.

This experiment has as its target dopamine 2 receptor (D2R) with SmBiT tag (UniProt P14416). Kind of experiment: split reporter (BiFC, NanoBiT); NanoBiT in cells: SmBiT on D2R, LgBiT on Gβ; stimulation with dopamine; Gαo-free control = 0% interaction, WT Gαo = 100% interaction.
Sequence of UniProt P14416 (P14416 whole entry): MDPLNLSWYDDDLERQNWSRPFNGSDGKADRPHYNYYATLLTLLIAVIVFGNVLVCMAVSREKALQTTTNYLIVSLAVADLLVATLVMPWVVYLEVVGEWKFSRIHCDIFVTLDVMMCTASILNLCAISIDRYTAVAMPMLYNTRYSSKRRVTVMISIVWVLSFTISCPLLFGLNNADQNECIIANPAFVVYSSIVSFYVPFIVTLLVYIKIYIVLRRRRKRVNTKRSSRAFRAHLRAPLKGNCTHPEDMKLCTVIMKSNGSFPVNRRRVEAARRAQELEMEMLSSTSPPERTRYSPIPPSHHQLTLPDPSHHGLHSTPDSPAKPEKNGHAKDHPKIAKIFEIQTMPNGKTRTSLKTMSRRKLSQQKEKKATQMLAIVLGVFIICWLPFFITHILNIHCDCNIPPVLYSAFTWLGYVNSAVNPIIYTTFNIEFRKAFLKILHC

Take “G protein heterotrimer of N76K Gαo with LgBiT-tagged Gβ and Gγ (from UniProt P09471 1-354; P62873 1-340; P59768 1-71) (complex)”: the fold change of receptor-Gβγ interaction against WT Gαo is 4 fold.
